Reference: patent US7867500B2, “Cofactor that modulates steroid receptor activities” (The United States of America as represented by the …, priority 2004, dated 2011)

Target: T1, GR (Rattus norvegicus, UniProt P06536)
T1 construct: expressed in transfected cells; host or cells: Cos-7
T1 sequence (P06536 1-795): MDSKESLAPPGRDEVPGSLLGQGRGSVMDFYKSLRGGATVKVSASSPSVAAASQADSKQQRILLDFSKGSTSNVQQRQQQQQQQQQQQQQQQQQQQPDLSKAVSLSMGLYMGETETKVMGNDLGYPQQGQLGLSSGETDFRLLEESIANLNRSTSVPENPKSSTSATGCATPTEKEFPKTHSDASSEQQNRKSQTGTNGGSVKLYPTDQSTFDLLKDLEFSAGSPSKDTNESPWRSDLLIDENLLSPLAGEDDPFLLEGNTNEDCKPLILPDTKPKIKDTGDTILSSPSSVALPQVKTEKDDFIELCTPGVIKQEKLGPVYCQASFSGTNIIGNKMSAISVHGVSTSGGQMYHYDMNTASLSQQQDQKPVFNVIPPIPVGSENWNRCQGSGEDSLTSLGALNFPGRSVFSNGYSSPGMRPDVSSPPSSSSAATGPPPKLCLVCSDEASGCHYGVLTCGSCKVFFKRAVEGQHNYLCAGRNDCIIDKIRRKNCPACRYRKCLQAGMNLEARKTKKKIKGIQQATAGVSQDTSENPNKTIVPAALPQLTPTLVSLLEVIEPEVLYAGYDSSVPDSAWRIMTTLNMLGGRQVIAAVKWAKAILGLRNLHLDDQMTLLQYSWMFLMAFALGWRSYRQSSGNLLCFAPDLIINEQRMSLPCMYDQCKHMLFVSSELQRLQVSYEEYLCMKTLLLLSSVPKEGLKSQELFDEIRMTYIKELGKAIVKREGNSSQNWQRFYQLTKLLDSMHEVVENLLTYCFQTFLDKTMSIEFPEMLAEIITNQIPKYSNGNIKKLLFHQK
T1 sequence (Q6EMB2 5-1281 A149V/F1267S partner limits assumed): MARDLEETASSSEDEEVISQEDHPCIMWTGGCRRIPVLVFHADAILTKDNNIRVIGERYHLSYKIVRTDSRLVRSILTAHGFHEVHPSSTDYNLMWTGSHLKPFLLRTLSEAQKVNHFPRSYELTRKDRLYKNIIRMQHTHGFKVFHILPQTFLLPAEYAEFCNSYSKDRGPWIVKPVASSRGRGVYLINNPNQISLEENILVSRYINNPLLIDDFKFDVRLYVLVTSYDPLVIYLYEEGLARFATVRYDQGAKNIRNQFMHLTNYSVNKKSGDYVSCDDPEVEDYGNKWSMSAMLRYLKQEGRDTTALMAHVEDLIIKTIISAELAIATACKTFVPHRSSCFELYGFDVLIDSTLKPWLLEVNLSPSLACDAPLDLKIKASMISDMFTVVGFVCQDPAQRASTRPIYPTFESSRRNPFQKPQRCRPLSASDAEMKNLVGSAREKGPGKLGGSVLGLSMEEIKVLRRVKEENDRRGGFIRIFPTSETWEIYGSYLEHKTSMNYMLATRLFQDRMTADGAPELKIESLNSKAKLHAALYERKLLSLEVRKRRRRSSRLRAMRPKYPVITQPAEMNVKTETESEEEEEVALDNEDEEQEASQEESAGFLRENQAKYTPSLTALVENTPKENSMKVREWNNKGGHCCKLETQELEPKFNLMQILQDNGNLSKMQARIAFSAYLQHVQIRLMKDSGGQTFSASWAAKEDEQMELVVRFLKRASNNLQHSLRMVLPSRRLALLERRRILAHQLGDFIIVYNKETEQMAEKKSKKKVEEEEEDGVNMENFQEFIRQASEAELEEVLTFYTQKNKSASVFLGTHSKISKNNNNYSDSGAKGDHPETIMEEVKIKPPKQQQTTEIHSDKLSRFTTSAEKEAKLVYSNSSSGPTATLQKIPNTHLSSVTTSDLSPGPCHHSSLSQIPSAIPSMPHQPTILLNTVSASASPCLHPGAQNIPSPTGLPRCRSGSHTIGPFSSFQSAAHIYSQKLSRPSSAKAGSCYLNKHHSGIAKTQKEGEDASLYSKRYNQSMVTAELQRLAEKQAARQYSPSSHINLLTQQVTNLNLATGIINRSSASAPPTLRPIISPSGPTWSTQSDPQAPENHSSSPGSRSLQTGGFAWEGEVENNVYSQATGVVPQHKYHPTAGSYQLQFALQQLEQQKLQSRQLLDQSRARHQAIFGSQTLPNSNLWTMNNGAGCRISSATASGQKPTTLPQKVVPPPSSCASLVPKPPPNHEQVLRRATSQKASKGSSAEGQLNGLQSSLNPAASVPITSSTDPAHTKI
Assay: Whole cell co-immunoprecipitation in Cos-7 cells: GR
Type: binding
Details: EtOH ± 1 μM Dex, 2 hr
Protocol: FIG. 7C1-3 illustrate whole cell co-immunoprecipitation of STAMP, GR, and TIF2/GRIP1. Cos-7 cells that had been co-transfected with Flag/STAMP (or Flag itself), HA/GRIP1, and GR plasmids (10 μg of each/150 mm dish) for 48 hr were treated for 2 hr with EtOH±1 μM Dex before being lysed as described in Example 1. Lysate was either analyzed on SDS-PAGE gels or treated with anti-Flag antibody to immunoprecipitate Flag/STAMP. The pellets were separated on SDS-PAGE gels and Western blotted with anti-Flag (FIG. 7C1), anti-HA (FIG. 7C2), or anti-GR antibodies (FIG. 7C3). In each panel, lane 1=5.7% of input lysate, lane 2=IP pellet of Flag/STAMP, HA/GRIP1, and GR+EtOH, lane 3=IP pellet of Flag/STAMP, HA/GRIP1, and GR+Dex, and lane 4=control IP pellet of Flag, HA/GRIP1, and GR+EtOH. Similar results were obtained in a second experiment.
Immunoprecipitations were conducted as generally described in Wang et al. (2004) Mol. Endocrinol. 18: 1476-95, with slight modifications. The day before transfection, Cos-7 cells were seeded into 150 mm dishes at 200,000 cells per dish containing 20 ml of media. On the next day, about 30 μg of DNA/dish was transfected with 60 μl of FuGene reagent. […]

B1: STAMP: SRC-1 and TIF2 Associated Modulatory Protein, 1277 amino acid human polypeptide, expressed from transfected plasmid (protein)
chain: T1 sequence (Q6EMB2 5-1281 A149V/F1267S partner limits assumed)
- co-immunoprecipitation of GR with Flag-STAMP by anti-Flag antibody: co-immunoprecipitated
